{
  "source": "paper PMC11496930",
  "about": "“Targeting RSV-neutralizing B cell receptors with anti-idiotypic antibodies” (Cell Reports, 2024)",
  "binders": {"B1": {"name": "1D3 recombinant IgG (human constant regions) (antibody, V domains shown)", "VH": "QVQIQQSGAELMRPGASVKLSCKATGYTFTGYWIEWVKQRPGHGLEWIGEILSGRGTTNYNEKFKGKATFTADTYSNTAYMQLSSLTTGDSAIYYCARGGFLYGDGPFDYWGQGTTLTVSS", "VL": "DILLTQSPAILSVSPGERVSFSCRASQNIDTHIHWYQQRTNGSPRLLIKYASESISGIPSRFSGSGSGTDFTLTINSVESEDIADYYCQQSNSWPFTFGSGTKLEIK", "notes": "also called 1D3-IgG; 1D3 IgG; source: 293-6E cells, purified (Protein A)"}, "B2": {"name": "2C1 recombinant IgG (human constant regions) (antibody, V domains shown)", "VH": "QVQLQQSGAELVRPGASVTLSCKASGYIFTDYEIHWLKQTPVHGLEWIGTSDPETGGFAYTQKFKGKAILTADKSSSTAYMELRSLTSEDSAVYYCTRRPYYGSGAWFAYWGQGTLVTVSA", "VL": "DIVMTQSHKFMSTSVGDRVSITCKANHDVNIAVAWYQQKPGQSPKLLIYSASYRYTGVPDRFTGSGSGTDFTFTISSVQAEDLAVYYCQQHYDTPRTFGGGTKLEIK", "notes": "also called 2C1-IgG; 2C1 IgG; source: 293-6E cells, purified (Protein A)"}},
  "target": "ADI-19425 Fab (human, UniProt P0DOY2)",
  "sequence (VH, as listed by the source, chain 1 of 2)": "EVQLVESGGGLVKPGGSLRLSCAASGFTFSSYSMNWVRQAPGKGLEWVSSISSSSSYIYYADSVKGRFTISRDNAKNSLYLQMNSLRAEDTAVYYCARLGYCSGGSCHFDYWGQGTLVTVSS",
  "sequence (VL, as listed by the source, chain 2 of 2)": "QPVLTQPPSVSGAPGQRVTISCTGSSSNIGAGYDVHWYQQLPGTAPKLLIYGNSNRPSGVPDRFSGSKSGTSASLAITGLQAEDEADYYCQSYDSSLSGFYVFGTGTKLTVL",
  "assay": "BLI; 1D3 IgG or 2C1 IgG (67 nM) on anti-human IgG capture sensors; ADI-19425 Fab in serial dilutions from 250 nM to 0 nM; KB buffer, 30°C; 1:1 binding model",
  "conditions": "both partners purified",
  "data": [
    {"binder": "B1", "values": [
      {"measurement": "Kd", "result": 400, "unit": "pM"}
    ]},
    {"binder": "B2", "values": [
      {"measurement": "Kd", "result": 1500, "unit": "pM"}
    ]}
  ]
}
